“And” between values parts separate entries of the source, which are not always exact repeats. Equal entries are not always repeated.
Columns and labels:
[1] = molecular target: regulatory domain of human tryptophan hydroxylase 1, C64S (RDTPH1 C64S) (human) (UniProt P17752); assay: SEC
[2] = molecular target: regulatory domain of human tryptophan hydroxylase 1, C64S (RDTPH1 C64S) (human) (UniProt P17752); assay: SEC; remark: listed apart in the source
[3] = molecular target: regulatory domain of human tryptophan hydroxylase 1, C64S (RDTPH1 C64S) (human) (UniProt P17752); assay: AUC

stoichiometry N [1]: 2
stoichiometry N [2]: 2 and 4
stoichiometry N [3]: 2
Substance: regulatory domain of human tryptophan hydroxylase 1, C64S (RDTPH1 C64S) (from UniProt P17752 1-101) (domain or fragment)

Source: paper PMC4935573
